Measured values taken from paper PMC6639331, “Reconstitution of recombinant human CCR4-NOT reveals molecular insights into regulated deadenylation”.

Legend:
NOT10:NOT11 = NOT10:NOT11 (Homo sapiens, UniProt Q9H9A5;Q9UKZ1 25-707;257-498); test: EMSA; 1 uM protein, 100 nM RNA; EMSA: 20 mM Tris/HCl pH 7.5, 10 mM NaCl, 2 mM MgCl2, 0.1% BSA, 0.1% Orange G, 3% Ficoll 400; 100 nM RNA; 10% native PAGE in TBE pH 8.3; temperature not stated; conditions: protein: recombinant; tags: MBP (NOT10) and C-His6 (NOT11) removed; copies: 1;1; label: 5' 6-FAM
[1] = target: T1, CAF40 module (NOT1:CAF40) (Homo sapiens, UniProt A5YKK6;Q92600 1351-1588;19-285); test: EMSA; 25 uM protein, 100 nM RNA; EMSA: 20 mM Tris/HCl pH 7.5, 10 mM NaCl, 2 mM MgCl2, 0.1% BSA, 0.1% Orange G, 3% Ficoll 400; 100 nM RNA; 10% native PAGE in TBE pH 8.3; temperature not stated; conditions: protein: recombinant; tags: MBP (NOT1) and His6 (CAF40) removed; copies: 1;1; label: 5' 6-FAM
[2] = target: T1, CAF40 module (NOT1:CAF40); test: EMSA competition; 100 uM NOT1:CAF40 + 200 uM MBP-Bam CBM L17E;M24E; almost no effect on RNA binding; EMSA: 20 mM Tris/HCl pH 7.5, 10 mM NaCl, 2 mM MgCl2, 0.1% BSA, 0.1% Orange G, 3% Ficoll 400; 100 nM RNA; 10% native PAGE in TBE pH 8.3; temperature not stated; conditions: protein: recombinant; tags: MBP (NOT1) and His6 (CAF40) removed; copies: 1;1; label: 5' 6-FAM

Chain of NOT10:NOT11 (Q9H9A5 25-707, chain 1 of 2, other chains not shown): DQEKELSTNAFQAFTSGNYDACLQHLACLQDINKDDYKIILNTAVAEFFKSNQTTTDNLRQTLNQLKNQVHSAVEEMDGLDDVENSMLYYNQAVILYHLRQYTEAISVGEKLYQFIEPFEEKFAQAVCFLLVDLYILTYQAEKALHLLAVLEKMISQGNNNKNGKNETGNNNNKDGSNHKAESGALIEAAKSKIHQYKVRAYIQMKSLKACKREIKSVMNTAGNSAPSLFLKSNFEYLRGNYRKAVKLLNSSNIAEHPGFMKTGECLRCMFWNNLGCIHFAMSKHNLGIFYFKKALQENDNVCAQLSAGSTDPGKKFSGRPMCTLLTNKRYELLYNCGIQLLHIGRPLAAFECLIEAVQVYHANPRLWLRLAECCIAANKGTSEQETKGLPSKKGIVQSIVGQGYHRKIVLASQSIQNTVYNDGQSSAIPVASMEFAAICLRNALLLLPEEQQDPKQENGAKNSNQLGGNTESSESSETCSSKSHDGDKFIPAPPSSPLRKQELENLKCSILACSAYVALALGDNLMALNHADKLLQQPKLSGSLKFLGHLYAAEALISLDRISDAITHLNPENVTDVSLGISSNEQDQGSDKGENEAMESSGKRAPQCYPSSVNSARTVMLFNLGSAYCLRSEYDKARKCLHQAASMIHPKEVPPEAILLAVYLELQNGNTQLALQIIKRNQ
T1 sequence (A5YKK6 1351-1588, chain 1 of 2): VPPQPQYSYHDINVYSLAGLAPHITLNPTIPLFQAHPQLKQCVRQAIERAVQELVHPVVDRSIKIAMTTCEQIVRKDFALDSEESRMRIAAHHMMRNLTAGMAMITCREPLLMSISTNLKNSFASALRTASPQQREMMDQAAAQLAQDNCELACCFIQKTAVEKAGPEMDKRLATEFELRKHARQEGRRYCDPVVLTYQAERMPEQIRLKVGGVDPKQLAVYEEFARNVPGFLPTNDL
T1 sequence (Q92600 19-285, chain 2 of 2): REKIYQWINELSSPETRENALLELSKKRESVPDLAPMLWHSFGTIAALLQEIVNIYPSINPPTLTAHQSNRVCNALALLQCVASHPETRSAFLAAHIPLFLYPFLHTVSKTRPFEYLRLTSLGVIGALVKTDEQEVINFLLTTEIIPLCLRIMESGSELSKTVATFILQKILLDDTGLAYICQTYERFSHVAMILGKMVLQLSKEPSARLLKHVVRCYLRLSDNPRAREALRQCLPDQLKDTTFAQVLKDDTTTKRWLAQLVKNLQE

| Binder | binding result (NOT10:NOT11) | binding result [1] | binding result [2] |
| --- | --- | --- | --- |
| CACAUCCAACUUCUCUAAAUAAAAAAAAAAAAAAAAAAAA (ssRNA) [13+7-mer-A20] | binds | binds |  |
| UCUAAAUAAAAAAAAAAAAAAAAAAAA (ssRNA) [7-mer-A20] | binds |  | binds |
